Article doi:10.1101/2025.02.16.638521

Target: biotinylated Sos1^PRS peptide
Test: BLI

GST-tagged Grb2^SH3C (C-terminal SH3 domain of Grb2) (domain or fragment)
Kd: 14.7 µM
